Results published in patent US20250043017A1.

Target: human 4-1BB expressed with a C-terminal myc-myc-hexahistidine tag (h4-1BB.mmH) (human)
Test: blocking ELISA, 0.25 nM h4-1BB-mmh binding to coated 6His-Flag-h4-1BBL

Chain of human 4-1BB expressed with a C-terminal myc-myc-hexahistidine tag (h4-1BB.mmH) (human) (chain, as listed by the source limits assumed): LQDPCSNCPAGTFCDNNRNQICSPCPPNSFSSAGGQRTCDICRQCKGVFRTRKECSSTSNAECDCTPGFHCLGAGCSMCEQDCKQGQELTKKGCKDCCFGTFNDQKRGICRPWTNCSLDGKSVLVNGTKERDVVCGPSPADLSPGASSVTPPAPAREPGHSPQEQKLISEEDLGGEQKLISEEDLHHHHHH

% Blocking at 100 nM mAb | Substance
-8% | Isotype Control 1 (antibody)
-11% | Isotype Control 2 (antibody)
